Test results as given in article PMC11482926 (bioRxiv, 2024).

Columns and labels:
[1] = biological target: NEDD8 (UniProt Q15843 1-76); test: NMR titration
[2] = biological target: ubiquitin (UniProt P0CG48 1-76); test: NMR titration

- Kd [1]: 671 ± 153 µM
- Kd [2]: 159 ± 9.5 µM
Binder: AAEDQVPCEKCGSLVPVWDMPEHMDYHFALELQKS (domain or fragment) [UBZ domain of Pol η (amino acids 628–662)]
